# From the RNAGym collection of RNA variant scans (doi:10.7554/elife.80360)
# B1: Hairpin Ribozyme (parent)
# chain: GUCCUCUUUCACGUGCGCGUGAAAGAGAGAAGUGAACCAGAGAAACACACGUUGUGGUAUAUUACCUGGUA
# Variants of: B1
# Assay: self-cleavage, relative activity (ratio to wild type); higher = more cleavage; co-transcriptional
row,Variant,self-cleavage
1,GUCCUCUUUCACGUGCGCGUGAAAUAGAGAAGUGAACCAGAGAAACACACGUUGUGGUGUAUUACCUGGUA,0.108
2,GUCCUCUUUCACGUGCGCGUGAAAUAGAGAAGUGAACCAGAGAAAGACACGUUGUGGUAUAUUACCUGGUA,0.153
3,GUCCUCUUUCACGUGCGCGUGAAACAGAGAAGUGAACCAGAGAAACACACGUUGUGGUAGAUUACCUGGUA,0.297
4,GUCCUCUUUCACGUGCGCGUGAAACAGAGAAGUGAACCAGAGAAACACACGUUGUGGUAAAUUACCUGGUA,0.392
5,GUCCUCUUUCACGUGCGCGUGAAAUAGAGAAGUGAACAAGAGAAACACACGUUGUGGUAUAUUACCUGGUA,0.216
6,GUCCUCUUUCACGUGCGCGUGAAAUAGAGAAGUGAACCAGAGAAACACACGUUGUGGUAUAUUUCCUGGUA,0.142
7,GUCCUCUUUCACGUGCGCGUGAAAUAGAGAAGUGAACCAGAGAAACACACGUUGUGGUAUAUUGCCUGGUA,0.428
8,GUCCUCUUUCACGUGCGCGUGAAACAGAGAAGUGAACCAGAGAAACACACGUUGUGGUAUAUUACCCGGUA,0.134
9,GUCCUCUUUCACGUGCGCGUGAAAUCGAGAAGUGAACCAGAGAAACACACGUUGUGGUAUAUUACCUGGUA,0.21
10,GUCCUCUUUCACGUGCGCGUGAAAUGGAGAAGUGAACCAGAGAAACACACGUUGUGGUAUAUUACCUGGUA,0.421
11,GUCCUCUUUCACGUGCGCGUGAAACAGAGAAGUGAACCAGAGAAACACACGGUGUGGUAUAUUACCUGGUA,0.356
12,GUCCUCUUUCACGUGCGCGUGAAACAGAGAAGUGAACCAGAGAAACACACGAUGUGGUAUAUUACCUGGUA,0.594
13,GUCCUCUUUCACGUGCGCGUGAAAUAGAGAAGUGAACCAGAGAACCACACGUUGUGGUAUAUUACCUGGUA,0.219
14,GUCCUCUUUCACGUGCGCGUGAAAGCGAGAAGUGAACAAGAGAAACACACGUUGUGGUAUAUUACCUGGUA,0.163
15,GUCCUCUUUCACGUGCGCGUGAAAGCGAGAAGUGAACGAGAGAAACACACGUUGUGGUAUAUUACCUGGUA,0.182
16,GUCCUCUUUCACGUGCGCGUGAAAGCGAGAAGUGAACCAGAGAAACACACGUUGUGGUAUAUUACCUGGUU,0.567
17,GUCCUCUUUCACGUGCGCGUGAAAGCGAGAAGUGAACCAGAGAAACACCCGUUGUGGUAUAUUACCUGGUA,0.218
18,GUCCUCUUUCACGUGCGCGUGAAAUAGAGAAGUGAACCAGAAAAACACACGUUGUGGUAUAUUACCUGGUA,0.144
19,GUCCUCUUUCACGUGCGCGUGAAAUAGAGAAGUAAACCAGAGAAACACACGUUGUGGUAUAUUACCUGGUA,0.897
20,GUCCUCUUUCACGUGCGCGUGAAAGCGAGAAGUGACCCAGAGAAACACACGUUGUGGUAUAUUACCUGGUA,0.488
21,GUCCUCUUUCACGUGCGCGUGAAAUAGAGCAGUGAACCAGAGAAACACACGUUGUGGUAUAUUACCUGGUA,0.146
22,GUCCUCUUUCACGUGCGCGUGAAAUAGAGAAGUGAACCGGAGAAACACACGUUGUGGUAUAUUACCUGGUA,0.191
23,GUCCUCUUUCACGUGCGCGUGAAAUAGAGAAGUGAACCAGAGCAACACACGUUGUGGUAUAUUACCUGGUA,0.166
24,GUCCUCUUUCACGUGCGCGUGAAAUAGAGAAGUGAACCAGAGAAACACACGUUGUGUUAUAUUACCUGGUA,0.179
25,GUCCUCUUUCACGUGCGCGUGAAAUAGAGAAGUGAACCAUAGAAACACACGUUGUGGUAUAUUACCUGGUA,0.132
26,GUCCUCUUUCACGUGCGCGUGAAAUAGAGACGUGAACCAGAGAAACACACGUUGUGGUAUAUUACCUGGUA,0.176

row,Variant,self-cleavage
1,GUCCUCUUUCACGUGCGCGUGAAAUAGAGAUGUGAACCAGAGAAACACACGUUGUGGUAUAUUACCUGGUA,0.166
2,GUCCUCUUUCACGUGCGCGUGAAAGCGAGAAGUGAACCAGAGACACACACGUUGUGGUAUAUUACCUGGUA,0.0715
3,GUCCUCUUUCACGUGCGCGUGAAAGCGAGAAGUGAACCAGAGAGACACACGUUGUGGUAUAUUACCUGGUA,0.124
4,GUCCUCUUUCACGUGCGCGUGAAAUAGAGAAGUGAACCAGUGAAACACACGUUGUGGUAUAUUACCUGGUA,1.08
5,GUCCUCUUUCACGUGCGCGUGAAAUAGACAAGUGAACCAGAGAAACACACGUUGUGGUAUAUUACCUGGUA,0.153
6,GUCCUCUUUCACGUGCGCGUGAAAUAGAAAAGUGAACCAGAGAAACACACGUUGUGGUAUAUUACCUGGUA,0.149
7,GUCCUCUUUCACGUGCGCGUGAAAGCGUGAAGUGAACCAGAGAAACACACGUUGUGGUAUAUUACCUGGUA,0.291
8,GUCCUCUUUCACGUGCGCGUGAAAUAGAGAAGUGAACCAGAGAAACUCACGUUGUGGUAUAUUACCUGGUA,0.205
9,GUCCUCUUUCACGUGCGCGUGAAAGCGAGAAGUGAACCUGAGAAACACACGUUGUGGUAUAUUACCUGGUA,0.303
10,GUCCUCUUUCACGUGCGCGUGAAAGCGAGAAGUGAACCCGAGAAACACACGUUGUGGUAUAUUACCUGGUA,0.47
11,GUCCUCUUUCACGUGCGCGUGAAAGCGAGAAGUGUACCAGAGAAACACACGUUGUGGUAUAUUACCUGGUA,0.495
12,GUCCUCUUUCACGUGCGCGUGAAAGCGAGAAGUGGACCAGAGAAACACACGUUGUGGUAUAUUACCUGGUA,0.529
13,GUCCUCUUUCACGUGCGCGUGAAAUAGAGAAGUGAACCAGAGAAACACACGUUGUGGUAUAUUACCUAGUA,0.183
14,GUCCUCUUUCACGUGCGCGUGAAAUAUAGAAGUGAACCAGAGAAACACACGUUGUGGUAUAUUACCUGGUA,0.17
15,GUCCUCUUUCACGUGCGCGUGAAAUAAAGAAGUGAACCAGAGAAACACACGUUGUGGUAUAUUACCUGGUA,0.131
16,GUCCUCUUUCACGUGCGCGUGAAAUACAGAAGUGAACCAGAGAAACACACGUUGUGGUAUAUUACCUGGUA,0.254
17,GUCCUCUUUCACGUGCGCGUGAAAUAGAGAAGUGAACCAGAGAAACACACGUUGUGGUAUGUUACCUGGUA,0.178
18,GUCCUCUUUCACGUGCGCGUGAAAUAGAGAAGUGAACCAGAGAAACACACGUUGUGGUAUCUUACCUGGUA,0.231
19,GUCCUCUUUCACGUGCGCGUGAAAUAGAGAAGUGGACCAGAGAAACACACGUUGUGGUAUAUUACCUGGUA,0.656
20,GUCCUCUUUCACGUGCGCGUGAAAUAGAGAAGUGAACCAGAGAAACACACGUUGUGGUAUAUAACCUGGUA,0.184
21,GUCCUCUUUCACGUGCGCGUGAAAUAGAGAAGUGAGCCAGAGAAACACACGUUGUGGUAUAUUACCUGGUA,0.639
22,GUCCUCUUUCACGUGCGCGUGAAACAGAGAAGUGAACCAGAGAAACACACGUUGUGGUAUAUUACCUGGCA,0.401
23,GUCCUCUUUCACGUGCGCGUGAAACAGAGAAGUGAACCAGAGAAACACACGUUGUGGUAUAUUACCUGGAA,0.574
24,GUCCUCUUUCACGUGCGCGUGAAAGCGAGCAGUGAACCAGAGAAACACACGUUGUGGUAUAUUACCUGGUA,0.25
25,GUCCUCUUUCACGUGCGCGUGAAAUAGAGAAGUGAACCAGAGAAACACACGAUGUGGUAUAUUACCUGGUA,0.55
26,GUCCUCUUUCACGUGCGCGUGAAACAGAGAAGAGAACCAGAGAAACACACGUUGUGGUAUAUUACCUGGUA,0.0816

row,Variant,self-cleavage
1,GUCCUCUUUCACGUGCGCGUGAAAUAGAGAAGUGAACCAGAGAAACACACGUUGUGGUAUAAUACCUGGUA,0.114
2,GUCCUCUUUCACGUGCGCGUGAAAUAGAGAAGUGAACCAGAGAAACACACGUUGUGGUAUAGUACCUGGUA,0.237
3,GUCCUCUUUCACGUGCGCGUGAAACAGAGAAGUGAACCAGAGAAACACACGUUGUGUUAUAUUACCUGGUA,0.216
4,GUCCUCUUUCACGUGCGCGUGAAAUAGAGAAAUGAACCAGAGAAACACACGUUGUGGUAUAUUACCUGGUA,0.128
5,GUCCUCUUUCACGUGCGCGUGAAAGCGAGAAGUGAACCAGAGAAACACACGUUGUGGUCUAUUACCUGGUA,0.0674
6,GUCCUCUUUCACGUGCGCGUGAAAUAGAGAAGUGAACCAGAGAAACACACGUUGUAGUAUAUUACCUGGUA,0.21
7,GUCCUCUUUCACGUGCGCGUGAAAUAGAGAAGUGAACCAGAGAAACACACGUUGUCGUAUAUUACCUGGUA,0.17
8,GUCCUCUUUCACGUGCGCGUGAAAUAGAGAAGUGAACCAGAGAAACACACGUUGUUGUAUAUUACCUGGUA,0.223
9,GUCCUCUUUCACGUGCGCGUGAAAUAGAGAAGUGAACCAGAGAAACACACGUUGUGGUAUAUUACCUGAUA,0.261
10,GUCCUCUUUCACGUGCGCGUGAAAUAGAGAAGUGAACCAGAGAAACACACGUUAUGGUAUAUUACCUGGUA,0.496
11,GUCCUCUUUCACGUGCGCGUGAAAUAGAGAAGUGAACCAGAGAAACACACGUUGUGGAAUAUUACCUGGUA,0.447
12,GUCCUCUUUCACGUGCGCGUGAAAUAGAGAAGUGAACCAGAGAAACACACGUUGUGGCAUAUUACCUGGUA,0.503
13,GUCCUCUUUCACGUGCGCGUGAAAUAGAGAAGUGAAGCAGAGAAACACACGUUGUGGUAUAUUACCUGGUA,0.182
14,GUCCUCUUUCACGUGCGCGUGAAAUAGAGAAGUGAAUCAGAGAAACACACGUUGUGGUAUAUUACCUGGUA,0.427
15,GUCCUCUUUCACGUGCGCGUGAAAUAGAGAAGUGAACCAGAGAAACACGCGUUGUGGUAUAUUACCUGGUA,0.217
16,GUCCUCUUUCACGUGCGCGUGAAAUAGAGAAGUGAACCAGAGAAACACCCGUUGUGGUAUAUUACCUGGUA,0.179
17,GUCCUCUUUCACGUGCGCGUGAAAUAGCGAAGUGAACCAGAGAAACACACGUUGUGGUAUAUUACCUGGUA,0.233
18,GUCCUCUUUCACGUGCGCGUGAAAUAGGGAAGUGAACCAGAGAAACACACGUUGUGGUAUAUUACCUGGUA,0.971
19,GUCCUCUUUCACGUGCGCGUGAAAGCGAGAAGUGAACCAGAGAAACUCACGUUGUGGUAUAUUACCUGGUA,0.0646
20,GUCCUCUUUCACGUGCGCGUGAAAGCGAGAAGUGAACCAGAGAAACGCACGUUGUGGUAUAUUACCUGGUA,0.187
21,GUCCUCUUUCACGUGCGCGUGAAAUAGAGAAGUGAACCAGAGAAACACACGUUGCGGUAUAUUACCUGGUA,0.205
22,GUCCUCUUUCACGUGCGCGUGAAAUAGAGAAGUGAACCAGAGAAACACACGUUGUGGUAUAUUACGUGGUA,0.177
23,GUCCUCUUUCACGUGCGCGUGAAAUAGAGAAGUGAACCAGAGAAACACACGUUGUGGUAUAUUACAUGGUA,0.182
24,GUCCUCUUUCACGUGCGCGUGAAACAGAGAAGUGAACCAGAGAAACACACGUAGUGGUAUAUUACCUGGUA,0.497
